Source: patent US20150218534A1, “MODIFIED DNA POLYMERASE” (TOYOBO CO., LTD., priority 2012, published 2015)
Residue numbers refer to the chain shown, from its start. In names and notes the source's numbering stands.

B1: Pfu Y7A/P36H: modified Pfu DNA polymerase with Y7A and P36H (protein, UniProt P61875 1-775, looked up, variant Y7A P36H)
DNA polymerase: MILDVDAITEEGKPVIRLFKKENGKFKIEHDRTFRHYIYALLRDDSKIEEVKKITGERHGKIVRIVDVEKVEKKFLGKPITVWKLYLEHPQDVPTIREKVREHPAVVDIFEYDIPFAKRYLIDKGLIPMEGEEELKILAFDIETLYHEGEEFGKGPIIMISYADENEAKVITWKNIDLPYVEVVSSEREMIKRFLRIIREKDPDIIVTYNGDSFDFPYLAKRAEKLGIKLTIGRDGSEPKMQRIGDMTAVEVKGRIHFDLYHVITRTINLPTYTLEAVYEAIFGKPKEKVYADEIAKAWESGENLERVAKYSMEDAKATYELGKEFLPMEIQLSRLVGQPLWDVSRSSTGNLVEWFLLRKAYERNEVAPNKPSEEEYQRRLRESYTGGFVKEPEKGLWENIVYLDFRALYPSIIITHNVSPDTLNLEGCKNYDIAPQVGHKFCKDIPGFIPSLLGHLLEERQKIKTKMKETQDPIEKILLDYRQKAIKLLANSFYGYYGYAKARWYCKECAESVTAWGRKYIELVWKELEEKFGFKVLYIDTDGLYATIPGGESEEIKKKALEFVKYINSKLPGLLELEYEGFYKRGFFVTKKRYAVIDEEGKVITRGLEIVRRDWSEIAKETQARVLETILKHGDVEEAVRIVKEVIQKLANYEIPPEKLAIYEQITRPLHEYKAIGPHVAVAKKLAAKGVKIKPGMVIGYIVLRGDGPISNRAILAEEYDPKKHKYDAEYYIENQVLPAVLRILEGFGYRKEDLRYQKTRQVGLTSWLNIKKS
B2: KOD N210D: modified KOD DNA polymerase with N210D, deficient in 3′-5′ exonuclease activity (exo(−)) (protein, listed as Thermococcus kodakaraensis)
chain: MILDTDYITEDGKPVIRIFKKENGEFKIEYDRTFEPYFYALLKDDSAIEEVKKITAERHGTVVTVKRVEKVQKKFLGRPVEVWKLYFTHPQDVPAIRDKIREHPAVIDIYEYDIPFAKRYLIDKGLVPMEGDEELKMLAFDIETLYHEGEEFAEGPILMISYADEEGARVITWKNVDLPYVDVVSTEREMIKRFLRVVKEKDPDVLITYDGDNFDFAYLKKRCEKLGINFALGRDGSEPKIQRMGDRFAVEVKGRIHFDLYPVIRRTINLPTYTLEAVYEAVFGQPKEKVYAEEITTAWETGENLERVARYSMEDAKVTYELGKEFLPMEAQLSRLIGQSLWDVSRSSTGNLVEWFLLRKAYERNELAPNKPDEKELARRRQSYEGGYVKEPERGLWENIVYLDFRSLYPSIIITHNVSPDTLNREGCKEYDVAPQVGHRFCKDFPGFIPSLLGDLLEERQKIKKKMKATIDPIERKLLDYRQRAIKILANSYYGYYGYARARWYCKECAESVTAWGREYITMTIKEIEEKYGFKVIYSDTDGFFATIPGADAETVKKKAMEFLKYINAKLPGALELEYEGFYKRGFFVTKKKYAVIDEEGKITTRGLEIVRRDWSEIAKETQARVLEALLKDGDVEKAVRIVKEVTEKLSKYEVPPEKLVIHEQITRDLKDYKATGPHVAVAKRLAARGVKIRPGTVISYIVLKGSGRIGDRAIPFDEFDPTKHKYDAEYYIENQVLPAVERILRAFGYRKEDLRYQKTRQVGLSAWLKPKGT
B3: KOD I142R: modified KOD DNA polymerase with I142R, deficient in 3′-5′ exonuclease activity (exo(−)) (protein, listed as Thermococcus kodakaraensis)
chain: B2 chain with I142R, D210N
B4: KOD D141A/E143A: modified KOD DNA polymerase with D141A and E143A, deficient in 3′-5′ exonuclease activity (exo(−)) (protein, listed as Thermococcus kodakaraensis)
chain: B2 chain with D141A, E143A, D210N

Columns and labels:
Format in all cases: biochemical
[1] = test system: human genomic DNA (about 1.3 kb) with dUTP added; assay: Evaluation of uracil (dUTP) sensitivity by PCR with dUTP added to the reaction; conditions: for sensitivity to dUTP / amount of amplification, comparison with single mutants or wild type: dUTP added to PCR (FIGS. 3 and 4)
Protocol: The uracil sensitivity of the modified DNA polymerase of the present invention can be evaluated by PCR. For example, a dUTP solution is added at a final concentration of 0.5 μM to 200 μM to a common PCR reaction solution containing DNA as a template, a buffer, magnesium, dNTPs, primers, and a DNA polymerase to be evaluated, and thermal cycling is performed. After the reaction, the presence or absence of PCR products is confirmed by ethidium bromide-stained agarose electrophoresis, and the uracil sensitivity can be evaluated by the concentration of accepted dUTP. With a DNA polymerase having high uracil sensitivity, the extension reaction is inhibited by the addition of a small amount of dUTP, and PCR products cannot be confirmed. With a DNA polymerase having low uracil sensitivity, gene amplification by PCR can be confirmed without problem, even if a high concentration of dUTP is added. The modified DNA polymerase with low uracil sensitivity in the present invention refers to a DNA polymerase such that when optimum thermal cycling is performed using any primers and DNA as a template in a reaction buffer optimum for the enzyme, even if a high concentration of dUTP is added, an extension reaction is not inhibited and PCR products can be confirmed, compared to wild-type DNA polymerase, which has no mutation.
More specifically, 10× PCR buffer included in KOD-Plus-Ver. 2 (produced by Toyobo Co. Ltd.) or 10× PCR buffer included in Pfu DNA Polymerase (produced by Agilent) is used; dUTP (produced by Roche) is added to 50 μl of individual reaction solutions containing 1× PCR buffer, 1.5 mM MgSO4, dNTPs (dATP, dTTP, dCTP, and dGTP) in an amount of 0.2 mM, primers represented by SEQ ID NOs: 25 and 26 in an amount of 15 pmol for amplifying about 1.3 kb, 10 ng of human genomic DNA (produced by Roche), and 1 U of each respective enzyme, to final concentrations of 0.5, 5, 50, 100, and 200 μM. PCR is performed using a GeneAmp PCR system 9700 (Applied Biosystems) on the following schedule; preliminary reaction at 94° C. for 30 seconds, followed by 30 cycles, each cycle consisting of 98° C. for 10 seconds, 65° C. for 30 seconds, and 68° C. for 1 minute and 30 seconds. After the completion of each individual reaction, 5 μl of each of the resulting reaction solutions is subjected to agarose electrophoresis, followed by ethidium bromide staining. The uracil sensitivity can be evaluated by confirming amplified DNA fragments of about 1.3 kb under ultraviolet irradiation.
PCR was performed by the following method to evaluate uracil sensitivity. For PCR, components included in KOD-Plus-Ver. 2 (produced by Toyobo Co. Ltd.) were used. dUTP (produced by Roche) was added to 50 μl of individual reaction solutions containing 1× PCR buffer, 1.5 mM MgSO4, dNTPs (dATP, dTTP, dCTP, dGTP) in an amount of 0.2 mM, primers represented by SEQ ID NOs: 25 and 26 in an amount of 15 pmol for amplifying about 1.3 kb, 10 ng of human genomic DNA (produced by Roche), and 1 U of each respective enzyme, to final concentrations of 0.5, 5, 50, 100, and 200 μM. PCR was performed using a GeneAmp PCR system 9700 (produced by Applied Biosystems) on the following schedule: preliminary reaction at 94° C. for 30 seconds, followed by 30 cycles, each cycle consisting of 98° C. for 10 seconds, 65° C. for 30 seconds, and 68° C. for 1 minute and 30 seconds. After the completion of each individual reaction, 5 μl of each of the resulting reaction solutions was subjected to agarose electrophoresis, followed by ethidium bromide staining. Under ultraviolet irradiation, amplified DNA fragments of about 1.3 kb were confirmed. FIGS. 3, 4, 7, and 8 show the results.

482 bp of human β-globin = assay: PCR amplification of 482 bp of human β-globin with dUTP in place of dTTP; design: key to Results of PCR in the presence of dUTP 481 bp: A: Amplified; B: Amplified (faint band); C: Not amplified; conditions: dTTP replaced by dUTP, 35 cycles
Protocol: 482 bp of human β-globin was amplified to compare the amplification difference between the case of using dTTP and the case of using dUTP in PCR, and the sensitivity to dUTP was examined. For amplification, each enzyme was used after being mixed with 1 μg of a KOD antibody per U of the enzyme. For PCR, components included in KOD-Plus-Ver. 2 (produced by Toyobo Co. Ltd.) were used. General dNTPs (dATP, dTTP, dCTP, dGTP) in an amount of 0.2 mM were added to 50 μl of individual reaction solutions, and dNTPs (dATP, dUTP, dCTP, dGTP) in an amount of 0.2 mM in which dTTP was replaced by dUTP were added to 50 μl of individual reaction solutions. The reaction solutions contained 1× PCR buffer, 1.5 mM MgSO4, primers represented by SEQ ID NOs: 27 and 28 in an amount of 15 pmol for amplifying […], 10 ng of human genomic DNA (produced by Roche), and 1 U of each respective enzyme mixed with the antibody. PCR was performed using a GeneAmp PCR system 9700 (produced by Applied Biosystems) on the following schedule: preliminary reaction at 94° C. for 2 minutes, followed by 35 cycles, each cycle consisting of 98° C. for 10 seconds and 68° C. for 1 minute. After the completion of each individual reaction, each of the resulting reaction solutions was analyzed using to a DNA-1000 kit for MultiNA (produced by Shimadzu Corporation) to confirm amplified DNA fragments. FIGS. 5 and 6 show the results.

[2] = test system: 1.3 kbp, 2.8 kbp, and 3.6 kbp of human β-globin; assay: Amplification of long-chain DNA in PCR using dUTP; conditions: 1.3, 2.8, 3.6 kbp; 100% dUTP (FIGS. 9 and 10)
Protocol: Amplification of 1.3 kbp, 2.8 kbp, and 3.6 kbp of human β-globin in PCR using dUTP was compared. For amplification, each enzyme was used after being mixed with 1 μg of a KOD antibody per U of the enzyme. For PCR, components included in KOD-Plus-Ver. 2 (produced by Toyobo Co. Ltd.) were used. 50 μl of individual reaction solutions containing 1× PCR buffer, 1.5 mM MgSO4, dNTPs (dATP, dUTP, dCTP, dGTP) in an amount of 2 mM in which dTTP was replaced by dUTP, primers in an amount of 15 pmol (SEQ ID NOs: 25 and 26 for amplification of 1.3 kbp; SEQ ID NOs: 26 and 29 for amplification of 2.8 kbp; SEQ ID NOs: 30 and 31 for amplification of 3.6 kbp), 10 ng of human genomic DNA (produced by Roche), and 1 U of each respective enzyme mixed with the antibody were used. PCR was performed using a GeneAmp PCR system 9700 (Applied Biosystems) on the following schedule: preliminary reaction at 94° C. for 2 minutes, followed by 35 cycles, each cycle consisting of 98° C. for 10 seconds, 65° C. for 30 seconds, and 68° C. for about 1 minute per kbp (1 minute and 30 seconds for amplification of 1.3 kbp; 3 minutes for amplification of 2.8 kbp; 4 minutes for amplification of 3.6 kbp). As a control, amplification was also performed using Taq DNA polymerase. Taq DNA polymerase produced by Toyobo Co. Ltd. mixed with Anti-Taq High (produced by Toyobo Co. Ltd.) was used. 50 μl of a reaction solution containing 1× buffer included in Blend Taq, dNTPs (dATP, dUTP, dCTP, dGTP) in an amount of 2 mM in which dTTP was replaced by dUTP, primers in an amount of 10 pmol the same as the above), 10 ng of human genomic DNA (produced by Roche), and 2.5 U of the enzyme mixed with the antibody was used. PCR was performed using a GeneAmp PCR system 9700 (produced by Applied Biosystems) on the following schedule: preliminary reaction at 94° C. for 2 minutes, followed by 35 cycles, each cycle consisting of 94° C. for 30 seconds, 65° C. for 30 seconds, and 68° C. for about 1 minute per kbp (1 minute and 30 seconds for amplification of 1.3 kbp; 3 minutes for amplification of 2.8 kbp; 4 minutes for amplification of 3.6 kbp). After the completion of each individual reaction, 5 μl of each of the resulting reaction solutions was subjected to agarose electrophoresis, followed by ethidium bromide staining, and the amount of amplified DNA fragments was confirmed under ultraviolet irradiation. FIGS. 9 and 10 show the results.

Molecule | sensitivity to dUTP / amount of amplification, comparison with single mutants or wild type [1] | further results
KOD N210D/P36K: KOD N210D (exo(−)) mutant with P36K | – | Evaluation of dUTP resisitance on a 11-point scale ([1]; closer to 0 = stronger sensitivity to dUTP, closer to 10 = lower sensitivity, summary of Examples 1 to 3): 8; dUTP resistance ([1]; dUTP added to 0.5, 5, 50, 100, 200 μM, about 1.3 kb, 30 cycles, 1 U enzyme): >200 µM; Results of PCR in the presence of dUTP 481 bp (482 bp of human β-globin): A
B1 | provided a larger amount of amplification | amount of amplification of long-chain DNA with dUTP [2]: provided larger amounts of amplification
B2 | less sensitive to dUTP than the wild-type DNA polymerase | –
B3 | less sensitive to dUTP than the wild-type DNA polymerase | –
B4 | less sensitive to dUTP than the wild-type DNA polymerase | –
